Results from patent US20250223580.

Experiments:
[1] = test system: Csx30 from Desulfonema ishimotonii, full length
[2] = test system: HA-Csx30 S526A/Q428A/R530A/Q531A
[3] = test system: N-terminal HA-tagged Csx30 alanine mutants of individual regions of the Csx29-Csx30 interface
[4] = test system: Csx30 fragment, residues 396-565
[5] = test system: TwinStrep-SUMO-Csx30 1-544 (C-terminal truncation of Csx30)
TwinStrep-SUMO-Csx30 1-544 (C-terminal truncation of Csx30), sequence (chain, as listed by the source): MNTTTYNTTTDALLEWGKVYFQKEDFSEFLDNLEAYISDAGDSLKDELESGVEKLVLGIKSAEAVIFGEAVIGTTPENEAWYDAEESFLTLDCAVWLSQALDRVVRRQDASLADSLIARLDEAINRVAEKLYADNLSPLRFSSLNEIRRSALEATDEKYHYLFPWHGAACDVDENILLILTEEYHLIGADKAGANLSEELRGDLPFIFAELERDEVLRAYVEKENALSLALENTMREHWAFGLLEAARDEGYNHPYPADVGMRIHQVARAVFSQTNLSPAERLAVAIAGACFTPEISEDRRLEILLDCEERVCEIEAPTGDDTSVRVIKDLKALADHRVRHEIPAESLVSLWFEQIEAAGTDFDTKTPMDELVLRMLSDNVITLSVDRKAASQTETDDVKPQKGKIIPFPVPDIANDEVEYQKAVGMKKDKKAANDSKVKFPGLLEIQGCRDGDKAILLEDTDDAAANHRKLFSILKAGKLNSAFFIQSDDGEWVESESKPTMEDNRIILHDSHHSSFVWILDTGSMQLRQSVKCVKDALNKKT

Csx30 from Desulfonema ishimotonii, full length, sequence (chain, as listed by the source): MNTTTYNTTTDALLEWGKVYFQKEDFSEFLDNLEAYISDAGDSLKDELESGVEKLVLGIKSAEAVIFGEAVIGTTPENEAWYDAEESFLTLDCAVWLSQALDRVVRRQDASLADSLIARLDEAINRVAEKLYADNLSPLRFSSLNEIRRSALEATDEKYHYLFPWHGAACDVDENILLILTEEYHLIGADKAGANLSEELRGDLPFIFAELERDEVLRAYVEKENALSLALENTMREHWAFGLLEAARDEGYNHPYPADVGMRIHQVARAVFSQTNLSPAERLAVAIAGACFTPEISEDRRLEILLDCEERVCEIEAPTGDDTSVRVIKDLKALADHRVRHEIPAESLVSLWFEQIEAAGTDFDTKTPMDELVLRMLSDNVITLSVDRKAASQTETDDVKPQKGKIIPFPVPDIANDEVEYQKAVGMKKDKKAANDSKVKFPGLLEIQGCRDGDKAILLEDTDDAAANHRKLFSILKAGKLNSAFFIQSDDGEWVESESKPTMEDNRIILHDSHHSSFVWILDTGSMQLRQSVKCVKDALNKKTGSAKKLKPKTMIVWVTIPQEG
Csx30 fragment, residues 396-565, sequence (chain, as listed by the source): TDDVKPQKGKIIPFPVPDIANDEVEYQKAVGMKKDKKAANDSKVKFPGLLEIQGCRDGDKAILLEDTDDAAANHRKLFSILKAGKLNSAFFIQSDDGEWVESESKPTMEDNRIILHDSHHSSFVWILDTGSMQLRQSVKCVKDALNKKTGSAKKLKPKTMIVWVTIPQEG

Row | Substance | cleavage of Csx30 in in vitro reactions (immunoblot, SDS-PAGE) [1] | cleavage of Up1 within the purified Up1-Up3 complex (SDS-PAGE, Coomassie) [1] | stated: cleaved (target-RNA-dependent cleavage of HA-Csx30, anti-HA immunoblot) [1] | stated: cleaved (target-RNA-dependent cleavage of HA-Csx30, anti-HA immunoblot) (HA-Csx30 K551A/K553A) | stated: cleaved (target-RNA-dependent cleavage of HA-Csx30, anti-HA immunoblot) (HA-Csx30 M527A) | stated: cleaved (target-RNA-dependent cleavage of HA-Csx30, anti-HA immunoblot) [2] | in vitro cleavage of Csx30 alanine mutants (immunoblot) [3] | in vitro cleavage of truncated Csx30 (SDS-PAGE) [4] | molar excess of Csx30 substrate cleaved in vitro [1] | in vitro cleavage of truncated Csx30 (SDS-PAGE) [5]
1 | Cas7-11-Csx29-crRNA complex | Csx30, is specifically cleaved in response to a target RNA | only in the lane with gRAMP-CHAT + and target RNA + do bands appear at about 50 kDa and just above 15 kDa, with a weaker Up1 band; the lanes without gRAMP-CHAT, or with gRAMP-CHAT and no target RNA, show only Up1 and Up3; the Up3 band is unchanged | Wildtype: without target RNA only the upper full-length band; with target RNA the upper band is weak and a strong product band stands just above the 50 kDa mark | K551A/K553A: without target RNA only the upper full-length band; with target RNA a product band just above the 50 kDa mark, and a weaker upper band remains | M527A: without target RNA only the upper full-length band; with target RNA the upper band is faint and a product band stands just above the 50 kDa mark | S526A/Q428A/R530A/Q531A: without target RNA only the upper full-length band; with target RNA the upper band is faint and a product band stands just above the 50 kDa mark | mutating individual regions of the Csx29-Csx30 interface did not significantly affect Csx30 cleavage | – | – | –
2 | dCas7-11-Csx29-crRNA complex (Cas7-11 D429A/D654A) | – | – | – | – | – | – | – | Csx30 fragments containing residues 396-565 were efficiently cleaved in vitro | cleaving 100-fold molar excess of Csx30 substrate in minutes | even a twenty amino acid truncation (Csx301-544) abolished cleavage activity
